17 molecules from patent US20110091971A1, “Differentiation of Pluripotent Stem Cells” (priority 2008, published 2011) can be followed below.

Numbering of substitutions follows the chain as printed.

First the molecules themselves.
B1: ACTN5: activin A variant peptide, SEQ ID 6 (protein)
chain: GLECDGKVNYCCKKQNFVSFKDIGWNDWIIAPSGYHANECSGKCPSHIAGTSGSSLSFHSTVINHYRMRGHSPFSNLGACCIPTKLRPMSMLYYDDGQNIIKKDIQNMIVEECGCS
B2: ACTN27: activin A variant peptide, SEQ ID 28 (protein)
chain: B1 chain with Y10L, N16L, E39H, S41D, S75A, L77R
B3: ACTN42: activin A variant peptide, SEQ ID 43 (protein)
chain: B1 chain with N16D, E39K, N76D, L77M, A79S
B4: ACTN66: activin A variant peptide, SEQ ID 67 (protein)
chain: GLECDGKVNICCKKQMFGQAKDIGWNDWIIAPSGYHGGGCTGECPSHIAGTSGSSLSFHSTVINHYRMRGHSPWANLKSCCSPTKLRPMSMLYYDDGQNIIKKDIQNMVVEECGCT
B5: ACTN70: activin A variant peptide, SEQ ID 71 (protein)
chain: B4 chain with M16L, T41S, W74V, N107G
B6: ACTN73: activin A variant peptide, SEQ ID 74 (protein)
chain: B4 chain with M16S, T41S, W74F, N107G
B7: ACTN83: activin A variant peptide, SEQ ID 84 (protein)
chain: B4 chain with M16S, Q19R, W74F, N107G, V109K
B8: ACTN88: activin A variant peptide, SEQ ID 89 (protein)
chain: B4 chain with M16S, A20T, T41S
B9: ACTN72: activin A variant peptide, SEQ ID 73 (protein)
chain: B4 chain with M16L, G39S, W74N
B10: ACTN86: activin A variant peptide, SEQ ID 87 (protein)
chain: B4 chain with M16S, Q19K, A20T, T41S
B11: ACTN68: activin A variant peptide, SEQ ID 69 (protein)
chain: B4 chain with M16S, Q19K, W74F, N107G, V109K
B12: ACTN92: activin A variant peptide, SEQ ID 93 (protein)
chain: B4 chain with M16S, T41S, W74F, N107G, V109K
B13: ACTN67: activin A variant peptide, SEQ ID 68 (protein)
chain: B4 chain with M16S, A20T, T41S, V109K
B14: ACTN93: activin A variant peptide, SEQ ID 94 (protein)
chain: B4 chain with M16S, A20T, W74F, V109K
B15: ACTN61: activin A variant peptide, SEQ ID 62 (protein)
chain: B4 chain with M16L, A20T, G39S, W74N, V109K
B16: ACTN60: activin A variant peptide, SEQ ID 61 (protein)
chain: B4 chain with M16S, A20T, T41S, S82A, T116V
B17: ACTN80: activin A variant peptide, SEQ ID 81 (protein)
chain: B4 chain with M16S, A20T, T41S, S82A, V109K, T116V

The first assay relates to H1 or H9 human embryonic stem cells. The assay is described as follows: Activin A bioassay: differentiation of human embryonic stem cells to definitive endoderm, cell number and SOX17 intensity by high content analysis (96-well, four days).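 As to Cell Number average: Raw total cell count per well from high content imaging.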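 As to Sox 17 Intensity average: total fluorescence of the cell multiplied by cell area.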 As to conditions: supernatant concentration 1x, assay dilution 1:20. The assay is classed as cell-based. An outline of the steps:
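Read-out was cell count and integrated SOX17 immunofluorescence by high-content imaging, with each well divided by the mean of the 100 ng/ml activin A control. Over the four-day culture, test samples were given in DMEM:F12 with 0.5% FCS plus 20 ng/ml Wnt3a for the first two days and in 2% FCS alone for the last two. Cells were H1 or H9 hESC clusters grown on Matrigel.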
B1: the “Cell Number average” value is given as 1261 and the “Sox 17 Intensity average” value stood at 1.111E+07.

The assay is the same for the next values; noted with them: supernatant concentration 1x, assay dilution 1:20; control = R&D Sys Activin A 100 ng/ml on same plate.
In the case of B1, the “Sox 17 Intensity % of control” value is given as 6.0%.

The assay is the same for the next values; noted with them: supernatant concentration 10x, assay dilution 1:20.
With B1, the “Cell Number average” value is listed as 1396 and the “Sox 17 Intensity average” value is 1.031E+07.

Still in this assay, the particulars now being: supernatant concentration 10x, assay dilution 1:20; assay plates #007, #009, #010.
As for B2, the “Cell Number average” value was found to be 6664 and the “Sox 17 Intensity average” value amounted to 1.39E+07.

In the case of B3, the “Cell Number average” value amounted to 9937 and the “Sox 17 Intensity average” value stood at 3.45E+06.

With B4, the “Cell Number average” value was 13360 and the “Sox 17 Intensity average” value turned out to be 4.84E+05.

B5: the “Cell Number average” value is 12551 and the “Sox 17 Intensity average” value stood at 9.67E+05.

Turning to B6, the “Cell Number average” value is recorded as 10569 and the “Sox 17 Intensity average” value is 8.27E+05.

Regarding B7, the “Cell Number average” value is given as 12084 and the “Sox 17 Intensity average” value stood at 5.39E+05.

For B8, the “Cell Number average” value is 11583 and the “Sox 17 Intensity average” value was determined as 6.21E+05.

Regarding B9, the “Cell Number average” value worked out at 14638 and the “Sox 17 Intensity average” value was found to be 3.44E+06.

Consider B10, for which the “Cell Number average” value stood at 11821 and the “Sox 17 Intensity average” value amounted to 7.45E+05.

With B11, the “Cell Number average” value was 13395 and the “Sox 17 Intensity average” value turned out to be 1.43E+06.

As to B12, the “Cell Number average” value was 14298 and the “Sox 17 Intensity average” value is 5.60E+05.

As to B13, the “Cell Number average” value was 12653 and the “Sox 17 Intensity average” value came out at 4.44E+05.

B14: the “Cell Number average” value came to 13409 and the “Sox 17 Intensity average” value worked out at 5.87E+05.

Take B15: the “Cell Number average” value came to 15268 and the “Sox 17 Intensity average” value was found to be 1.70E+06.

As for B16, the “Cell Number average” value was found to be 8303 and the “Sox 17 Intensity average” value is recorded as 5.90E+05.

For the molecule B17, the “Cell Number average” value was 9898 and the “Sox 17 Intensity average” value is given as 4.08E+05.

The same assay, now with this note: supernatant concentration 10x, assay dilution 1:20; control = R&D Sys Activin A 100 ng/ml on same plate.
With B2, the “Sox 17 Intensity % of control” value is given as 55.7%.

On to B1, for which the “Sox 17 Intensity % of control” value was 5.6%.

B3: the “Sox 17 Intensity % of control” value is on record as 13.8%.

For B4, the “Sox 17 Intensity % of control” value is listed as 2.2%.

With B5, the “Sox 17 Intensity % of control” value amounted to 4.4%.

In the case of B6, the “Sox 17 Intensity % of control” value is 3.7%.

Turning to B7, the “Sox 17 Intensity % of control” value is listed as 2.4%.

On to B8, for which the “Sox 17 Intensity % of control” value came out at 2.8%.

As for B9, the “Sox 17 Intensity % of control” value was found to be 13.8%.

Regarding B10, the “Sox 17 Intensity % of control” value came out at 3.4%.

In the case of B11, the “Sox 17 Intensity % of control” value worked out at 6.5%.

B12: the “Sox 17 Intensity % of control” value is reported as 2.5%.

As to B13, the “Sox 17 Intensity % of control” value is 2.0%.

Turning to B14, the “Sox 17 Intensity % of control” value came out at 2.7%.

Regarding B15, the “Sox 17 Intensity % of control” value came out at 6.8%.

In the case of B16, the “Sox 17 Intensity % of control” value turned out to be 2.4%.

In the case of B17, the “Sox 17 Intensity % of control” value was found to be 1.8%.

The same assay, now with this note: supernatant concentration 10x, assay dilution 1:40.
Regarding B1, the “Cell Number average” value worked out at 1382 and the “Sox 17 Intensity average” value was 1.311E+07.

Staying with this assay, now noted: supernatant concentration 10x, assay dilution 1:40; control = R&D Sys Activin A 100 ng/ml on same plate.
Turning to B1, the “Sox 17 Intensity % of control” value was 7.1%.

Staying with this assay, now noted: supernatant concentration 50x, assay dilution 1:20; assay plates #008, #009.
Turning to B2, the “Cell Number average” value is 6857 and the “Sox 17 Intensity average” value was 2.82E+07.

Consider B3, for which the “Cell Number average” value is recorded as 7805 and the “Sox 17 Intensity average” value came to 7.53E+06.

As to B4, the “Cell Number average” value was 16460 and the “Sox 17 Intensity average” value is listed as 3.39E+06.

As to B5, the “Cell Number average” value is given as 16071 and the “Sox 17 Intensity average” value is recorded as 3.20E+06.

As to B6, the “Cell Number average” value was 16351 and the “Sox 17 Intensity average” value was 3.13E+06.

Turning to B7, the “Cell Number average” value is listed as 15829 and the “Sox 17 Intensity average” value is reported as 9.01E+06.

As for B8, the “Cell Number average” value amounted to 15317 and the “Sox 17 Intensity average” value was found to be 2.87E+06.

As to B9, the “Cell Number average” value turned out to be 16810 and the “Sox 17 Intensity average” value was found to be 6.51E+06.

Turning to B10, the “Cell Number average” value was determined as 17034 and the “Sox 17 Intensity average” value came to 2.34E+06.

B11: the “Cell Number average” value stood at 15926 and the “Sox 17 Intensity average” value was 1.83E+06.

Consider B12, for which the “Cell Number average” value stood at 15009 and the “Sox 17 Intensity average” value worked out at 3.32E+06.

As to B13, the “Cell Number average” value came out at 14821 and the “Sox 17 Intensity average” value was found to be 3.50E+06.

For the molecule B14, the “Cell Number average” value turned out to be 15900 and the “Sox 17 Intensity average” value is recorded as 2.67E+06.

As to B15, the “Cell Number average” value was determined as 15256 and the “Sox 17 Intensity average” value was found to be 7.18E+06.

In the case of B16, the “Cell Number average” value is 10603 and the “Sox 17 Intensity average” value came out at 3.73E+06.

In the case of B17, the “Cell Number average” value is 14686 and the “Sox 17 Intensity average” value was 3.52E+06.

The assay is the same for the next values; noted with them: supernatant concentration 50x, assay dilution 1:20; control = R&D Sys Activin A 100 ng/ml on same plate.
In the case of B2, the “Sox 17 Intensity % of control” value came out at 113.1%.

As for B3, the “Sox 17 Intensity % of control” value amounted to 30.2%.

B4: the “Sox 17 Intensity % of control” value worked out at 6.1%.

With B5, the “Sox 17 Intensity % of control” value was 5.8%.

Take B6: the “Sox 17 Intensity % of control” value turned out to be 5.7%.

For B7, the “Sox 17 Intensity % of control” value amounted to 16.3%.

For the molecule B8, the “Sox 17 Intensity % of control” value came to 5.2%.

With B9, the “Sox 17 Intensity % of control” value is 26.1%.

For B10, the “Sox 17 Intensity % of control” value was 4.2%.

In the case of B11, the “Sox 17 Intensity % of control” value came out at 3.3%.

Regarding B12, the “Sox 17 Intensity % of control” value is reported as 6.0%.

As to B13, the “Sox 17 Intensity % of control” value is 6.3%.

Regarding B14, the “Sox 17 Intensity % of control” value was 4.8%.

B15: the “Sox 17 Intensity % of control” value was 28.8%.

In the case of B16, the “Sox 17 Intensity % of control” value is 15.0%.

On to B17, for which the “Sox 17 Intensity % of control” value worked out at 6.4%.
